Experiment [1] deals with CHIKV VLP (chikungunya virus (CHIKV), UniProt Q8JUX5 810-1248; Q8JUX5 326-748).
In experiment [2] the target is T1, WEEV Env-pseudotyped lentiviral reporter virus (Western equine encephalitis virus (WEEV), UniProt P13897 798-1236; P13897 320-742).
T1 sequence 1: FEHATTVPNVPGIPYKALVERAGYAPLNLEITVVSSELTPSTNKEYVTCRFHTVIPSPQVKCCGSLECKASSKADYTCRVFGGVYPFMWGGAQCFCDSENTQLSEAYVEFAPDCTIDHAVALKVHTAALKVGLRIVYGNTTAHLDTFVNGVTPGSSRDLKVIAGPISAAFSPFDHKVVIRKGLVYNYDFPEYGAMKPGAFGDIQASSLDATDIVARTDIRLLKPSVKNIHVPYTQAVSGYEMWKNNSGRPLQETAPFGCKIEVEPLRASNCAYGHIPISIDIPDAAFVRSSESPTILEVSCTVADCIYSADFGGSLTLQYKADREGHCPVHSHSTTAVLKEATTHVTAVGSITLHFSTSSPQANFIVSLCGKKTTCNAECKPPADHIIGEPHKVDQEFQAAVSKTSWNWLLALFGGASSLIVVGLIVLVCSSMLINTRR
T1 sequence 2: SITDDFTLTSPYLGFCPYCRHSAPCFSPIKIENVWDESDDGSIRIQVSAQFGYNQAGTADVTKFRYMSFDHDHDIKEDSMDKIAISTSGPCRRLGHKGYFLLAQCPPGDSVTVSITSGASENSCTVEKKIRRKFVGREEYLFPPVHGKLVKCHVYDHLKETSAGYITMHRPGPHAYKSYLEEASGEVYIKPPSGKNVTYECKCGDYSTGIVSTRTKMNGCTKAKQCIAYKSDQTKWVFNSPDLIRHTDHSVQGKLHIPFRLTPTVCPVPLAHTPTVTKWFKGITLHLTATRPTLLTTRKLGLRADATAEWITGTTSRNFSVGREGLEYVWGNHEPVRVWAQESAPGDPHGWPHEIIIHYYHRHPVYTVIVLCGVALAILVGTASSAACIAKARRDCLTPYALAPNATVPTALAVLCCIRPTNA
Briefly: cell-based or functional assay.

Experiment [3] concerns the target T2, EEEV Env-pseudotyped lentiviral reporter virus (Eastern equine encephalitis virus (EEEV), UniProt P08768 799-1239; P08768 323-742).
T2 sequence 1: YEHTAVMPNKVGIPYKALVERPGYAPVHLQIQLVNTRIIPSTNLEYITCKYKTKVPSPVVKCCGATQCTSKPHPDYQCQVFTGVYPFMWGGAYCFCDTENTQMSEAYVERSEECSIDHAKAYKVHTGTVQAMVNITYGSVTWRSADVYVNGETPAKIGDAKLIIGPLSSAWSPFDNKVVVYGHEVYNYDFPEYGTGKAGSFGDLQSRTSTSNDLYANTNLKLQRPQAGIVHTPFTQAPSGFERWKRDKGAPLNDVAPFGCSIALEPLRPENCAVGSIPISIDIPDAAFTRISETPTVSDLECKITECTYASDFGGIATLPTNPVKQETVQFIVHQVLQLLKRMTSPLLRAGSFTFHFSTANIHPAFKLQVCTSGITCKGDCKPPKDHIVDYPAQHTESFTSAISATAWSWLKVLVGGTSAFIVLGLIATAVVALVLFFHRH
T2 sequence 2: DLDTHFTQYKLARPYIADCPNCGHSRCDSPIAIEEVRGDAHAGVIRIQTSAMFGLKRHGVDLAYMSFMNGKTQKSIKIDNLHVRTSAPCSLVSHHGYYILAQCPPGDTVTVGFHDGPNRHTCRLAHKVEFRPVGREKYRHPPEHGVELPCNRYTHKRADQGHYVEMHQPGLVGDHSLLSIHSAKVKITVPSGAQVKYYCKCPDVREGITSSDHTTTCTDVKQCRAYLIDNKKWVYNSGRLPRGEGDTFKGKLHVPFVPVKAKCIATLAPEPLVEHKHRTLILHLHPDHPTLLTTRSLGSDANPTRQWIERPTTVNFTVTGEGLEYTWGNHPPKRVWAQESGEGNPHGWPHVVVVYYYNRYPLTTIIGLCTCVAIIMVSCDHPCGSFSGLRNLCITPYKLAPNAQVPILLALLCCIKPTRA
Briefly: cell-based or functional assay.

Experiment [4] deals with T3, VEEV Env-pseudotyped lentiviral reporter virus (Venezuelan equine encephalitis virus …, UniProt P09592 813-1254; P09592 335-757).
T3 sequence 1: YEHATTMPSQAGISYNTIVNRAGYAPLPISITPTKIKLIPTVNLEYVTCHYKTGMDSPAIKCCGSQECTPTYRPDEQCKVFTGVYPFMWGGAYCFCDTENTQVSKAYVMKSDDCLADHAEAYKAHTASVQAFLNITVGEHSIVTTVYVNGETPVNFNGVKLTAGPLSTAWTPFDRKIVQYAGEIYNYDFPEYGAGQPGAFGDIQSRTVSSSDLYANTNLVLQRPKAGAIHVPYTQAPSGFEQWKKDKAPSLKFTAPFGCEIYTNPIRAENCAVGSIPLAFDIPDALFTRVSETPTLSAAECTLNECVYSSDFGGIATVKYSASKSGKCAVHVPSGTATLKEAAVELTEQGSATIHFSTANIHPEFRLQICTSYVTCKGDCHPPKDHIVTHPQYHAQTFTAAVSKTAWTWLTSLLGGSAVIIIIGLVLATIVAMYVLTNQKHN
T3 sequence 2: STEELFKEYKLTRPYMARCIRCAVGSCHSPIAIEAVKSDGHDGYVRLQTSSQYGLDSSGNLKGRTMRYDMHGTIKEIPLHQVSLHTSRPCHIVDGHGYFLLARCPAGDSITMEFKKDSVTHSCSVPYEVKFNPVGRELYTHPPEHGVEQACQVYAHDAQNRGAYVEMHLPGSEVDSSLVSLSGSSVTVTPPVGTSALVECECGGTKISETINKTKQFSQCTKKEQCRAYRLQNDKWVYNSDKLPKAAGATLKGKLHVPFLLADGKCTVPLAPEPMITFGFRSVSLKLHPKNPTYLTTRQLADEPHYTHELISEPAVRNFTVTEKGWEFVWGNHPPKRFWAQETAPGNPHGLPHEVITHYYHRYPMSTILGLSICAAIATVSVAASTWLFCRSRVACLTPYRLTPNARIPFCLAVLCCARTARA
Briefly: cell-based or functional assay.

CHIKV VLP, sequence (Q8JUX5 810-1248 limits assumed, chain 1 of 2): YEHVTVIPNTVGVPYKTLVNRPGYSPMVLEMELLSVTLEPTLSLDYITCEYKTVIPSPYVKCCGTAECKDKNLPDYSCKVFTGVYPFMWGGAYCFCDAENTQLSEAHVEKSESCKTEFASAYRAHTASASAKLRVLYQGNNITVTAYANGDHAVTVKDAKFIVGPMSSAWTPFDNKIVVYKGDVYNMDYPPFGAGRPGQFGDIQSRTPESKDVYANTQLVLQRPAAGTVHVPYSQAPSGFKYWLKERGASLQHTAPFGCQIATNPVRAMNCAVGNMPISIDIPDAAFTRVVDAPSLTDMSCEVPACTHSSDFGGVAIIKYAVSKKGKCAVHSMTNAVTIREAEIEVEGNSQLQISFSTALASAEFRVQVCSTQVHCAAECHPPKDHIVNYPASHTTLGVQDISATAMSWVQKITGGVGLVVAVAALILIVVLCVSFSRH
CHIKV VLP, sequence (Q8JUX5 326-748 limits assumed, chain 2 of 2): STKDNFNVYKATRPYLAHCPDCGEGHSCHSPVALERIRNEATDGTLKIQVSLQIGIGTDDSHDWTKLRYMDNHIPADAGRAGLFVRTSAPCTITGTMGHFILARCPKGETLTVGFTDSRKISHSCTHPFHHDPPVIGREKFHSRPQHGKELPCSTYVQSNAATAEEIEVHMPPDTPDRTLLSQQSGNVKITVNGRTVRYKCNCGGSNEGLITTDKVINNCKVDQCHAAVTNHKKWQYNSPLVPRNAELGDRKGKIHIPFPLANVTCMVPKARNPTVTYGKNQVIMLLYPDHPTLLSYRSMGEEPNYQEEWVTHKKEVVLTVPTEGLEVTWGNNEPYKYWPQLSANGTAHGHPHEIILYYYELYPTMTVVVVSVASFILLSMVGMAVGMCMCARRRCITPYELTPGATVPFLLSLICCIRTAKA

B1: SKT05 (antibody, V domains shown)
VH: EVQLVESGAGLVQPGGSLRLSCAASGFTFSDSWMSWVRQSPGKGLEWVGRIKGKPDGETAAYAASVKGRFSISRDDSKNTLYLQMNSLKTEDTAVYYCTRDDRTSCRRGVCYAAFHSWGQGVLVTVSS
VL: DIQMTQSPSSLSASAGDRVTLTCRASQAISFYLAWYQQKPGKAPKRLIYDASELQGGVPSRFSGSGSGTDFTLSINSLQPEDSATYFCLQYDSPPFTFGPGTKVEIKR
As for B1, in experiment [1], a half-maximal response (EC50) required 0.1 µg/mL. Moreover, the entries for the “IC80, neutralization of Env-pseudotyped lentiviral reporter virus” value in experiment [2], in experiment [3] and in experiment [4] were 0.07 µg/mL, 0.39 µg/mL and 0.06 µg/mL, respectively.

(Values after patent US20260199447A1 (US Dept. of Health and Human Services, published 2026).)
